Results published in publication PMC10967716.

Key:
Assay in all cases: SEC
[1] = biological target: α-Methylacyl-CoA racemase from Mycobacterium tuberculosis, D156A mutant (M. tuberculosis) (UniProt O06543)
[2] = biological target: α-Methylacyl-CoA racemase from Mycobacterium tuberculosis, E241A mutant (M. tuberculosis) (UniProt O06543)
[3] = biological target: α-Methylacyl-CoA racemase from Mycobacterium tuberculosis, H126A mutant (M. tuberculosis) (UniProt O06543)

With “α-Methylacyl-CoA racemase from Mycobacterium tuberculosis, D156A mutant (from UniProt O06543 1-360) (enzyme)” the stoichiometry N [1] was 2.

Work on “α-Methylacyl-CoA racemase from Mycobacterium tuberculosis, E241A mutant (from UniProt O06543 1-360) (enzyme)” yielded a stoichiometry N [2] of 2.

Substance “α-Methylacyl-CoA racemase from Mycobacterium tuberculosis, H126A mutant (from UniProt O06543 1-360) (enzyme)” has a stoichiometry N [3] of 2.
